Source: article PMC9273934 (2022)

T1: recombinant CD81 large extracellular loop
T1 chain: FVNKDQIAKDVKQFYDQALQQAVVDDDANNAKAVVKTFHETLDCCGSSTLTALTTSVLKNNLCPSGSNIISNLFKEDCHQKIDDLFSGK


How the values were obtained:
[1] = molecular target: recombinant CD81 large extracellular loop; test: SPR; BiaCore T200, CM5 chip, room temperature; CD81-LEL immobilised at about 150 RU; Fc-E1E2 flowed at 0-250 ug/ml; HBS-EP pH 7.4, 150 mM NaCl; 1:1 steady state binding model
[2] = molecular target: T1, recombinant CD81 large extracellular …; test: SPR

Fc-E1E2 from H77 (GT1a), recombinant full-length E1E2 heterodimer (complex), sequence (P27958 192-383 limits assumed): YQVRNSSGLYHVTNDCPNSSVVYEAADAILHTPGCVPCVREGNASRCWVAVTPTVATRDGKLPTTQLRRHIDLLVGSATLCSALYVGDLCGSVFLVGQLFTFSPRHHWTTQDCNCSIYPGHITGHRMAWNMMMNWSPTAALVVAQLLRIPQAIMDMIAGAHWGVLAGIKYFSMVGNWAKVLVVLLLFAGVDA
Fc-E1E2 from H77 (GT1a), recombinant full-length E1E2 heterodimer (complex), sequence (P27958 384-746 limits assumed): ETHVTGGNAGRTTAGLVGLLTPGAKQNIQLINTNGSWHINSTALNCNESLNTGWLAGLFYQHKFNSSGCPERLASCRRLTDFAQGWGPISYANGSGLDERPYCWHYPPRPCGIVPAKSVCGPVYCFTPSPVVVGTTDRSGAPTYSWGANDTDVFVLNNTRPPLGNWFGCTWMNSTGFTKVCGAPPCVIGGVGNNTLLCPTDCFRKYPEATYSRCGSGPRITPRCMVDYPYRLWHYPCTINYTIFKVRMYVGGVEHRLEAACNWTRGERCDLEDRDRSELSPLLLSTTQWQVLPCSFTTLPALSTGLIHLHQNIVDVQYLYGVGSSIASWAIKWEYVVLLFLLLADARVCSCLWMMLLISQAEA

Molecule | Kd [1] [nM] | koff [2] [s⁻¹]
Fc-E1E2 from S52 (GT3a), recombinant full-length E1E2 heterodimer (complex) | 71 | 
Fc-E1E2 from H77 (GT1a), recombinant full-length E1E2 heterodimer (complex) | 382 | 
Fc-E1E2 from J6 (GT2a), recombinant full-length E1E2 heterodimer (complex) | 243 | 
Fc-E1E2 from Con1 (GT1b), recombinant full-length E1E2 heterodimer (from UniProt Q9WMX2 192-383; Q9WMX2 384-746) (complex) | 327 | 
Fc-E1E2 from HK6a (GT6a), recombinant full-length E1E2 heterodimer (complex) | 775 | 
Fc-E1E2 from S52 (GT3a), recombinant full-length E1E2 heterodimer (complex) chain 1: LEWRNTSGLYVLTNDCSNSSIVYEADDVILHTPGCVPCVQDDNTSTCWTPVTPTVAVRYVGATTASIRSHVDLLVGAATLCSALYVGDMCGAVFLVGQAFTFRPRRHQTVQTCNCSLYPGHVSGHRMAWDMMMNWSPAVGMVVAHILRLPQTLFDILAGAHWGILAGLAYYSMQGNWAKVAIVMIMFSGVDA chain 2: ETYVTGGSVAHSARGLTSLFSMGAKQKLQLVNTNGSWHINSTALNCNESINTGFIAGLFYYHKFNSTGCPQRLSSCKPIISFRQGWGPLTDANITGPSDDRPYCWHYAPRPCSVVPASSVCGPVYCFTPSPVVVGTTDIKGKPTYNWGENETDVFLLESLRPPSGRWFGCAWMNSTGFLKTCGAPPCNIYGGEGDPENETDLFCPTDCFRKHPEATYSRCGAGPWLTPRCMVDYPYRLWHYPCTVNFTLFKVRMFVGGFEHRFTAACNWTRGERCNIEDRDRSEQHPLLHSTTELAILPCSFTPMPALSTGLIHLHQNIVDVQYLYGVGSDMVGWALKWEFVILVFLLLADARVCVALWLMLMVSQAEA |  | 0.000465
Fc-E1E2 from Con1 (GT1b), recombinant full-length E1E2 heterodimer (complex) chain 1: YEVRNVSGVYHVTNDCSNASIVYEAADMIMHTPGCVPCVRENNSSRCWVALTPTLAARNASVPTTTIRRHVDLLVGAAALCSAMYVGDLCGSVFLVAQLFTFSPRRHETVQDCNCSIYPGHVTGHRMAWDMMMNWSPTAALVVSQLLRIPQAVVDMVAGAHWGVLAGLAYYSMVGNWAKVLIVMLLFAGVDG chain 2: GTYVTGGTMAKNTLGITSLFSPGSSQKIQLVNTNGSWHINRTALNCNDSLNTGFLAALFYVHKFNSSGCPERMASCSPIDAFAQGWGPITYNESHSSDQRPYCWHYAPRPCGIVPAAQVCGPVYCFTPSPVVVGTTDRFGVPTYSWGENETDVLLLNNTRPPQGNWFGCTWMNSTGFTKTCGGPPCNIGGIGNKTLTCPTDCFRKHPEATYTKCGSGPWLTPRCLVHYPYRLWHYPCTVNFTIFKVRMYVGGVEHRLEAACNWTRGERCNLEDRDRSELSPLLLSTTEWQVLPCSFTTLPALSTGLIHLHQNVVDVQYLYGIGSAVVSFAIKWEYVLLLFLLLADARVCACLWMMLLIAQAEA |  | 0.00277
Fc-E1E2 from HK6a (GT6a), recombinant full-length E1E2 heterodimer (complex) chain 1: LTYGNSSGLYHLTNDCPNSSIVLEADAMILHLPGCLPCVRVNNNQSICWHAVSPTLAIPNASTPATGFRRHVDLLAGAAVVCSSLYIGDLCGSLFLAGQLFTFQPRRHWTVQDCNCSIYTGHVTGHRMAWDMMMNWSPTTTLVLSSILRVPEICASVISGGHWGILLAVAYFGMAGNWLKVLAVLFLFAGVE chain 2: ATTTIGHQVGRTTGGLASLFSIGPRQNLQLINTTGSWHINRTALNCNDSLQTGFITSLFYAKNVNSSGCPERMAACKPLADFRQGWGQITYKVNISGPSDDRPYCWHYAPRPCDVVSARTVCGPVYCFTPSPVVVGTTDKLGIPTYNWGENETDVFMLESLRPPTGGWFGCTWMNSTGFTKTCGAPPCQIVPGDYNSSANELLCPTDCFRKHPEATYQRCGSGPWITPRCLVDYPYRLWHYPCTVNFTLHKVRMFVGGIEHRFDAACNWTRGERCDLHDRDRIEMSPLLFSTTQLAILPCSFSTMPALSTGLIHLHQNIVDVQYLYGVSSSVTSWVVKWEYIVLVFLVLADARICTCLWLMLLITNVEA |  | 0.0022
Fc-E1E2 from J6 (GT2a), recombinant full-length E1E2 heterodimer (complex) chain 1: AEVKNISTGYMVTNDCTNDSITWQLQAAVLHVPGCVPCEKVGNASQCWIPVSPNVAVQRPGALTQGLRTHIDMVVMSATLCSALYVGDLCGGVMLAAQMFIVSPQHHWFVQDCNCSIYPGTITGHRMAWDMMMNWSPTATMILAYAMRVPEVIIDIISGAHWGVMFGLAYFSMQGAWAKVVVILLLAAGVDA chain 2: RTHTVGGSAAQTTGRLTSLFDMGPRQKIQLVNTNGSWHINRTALNCNDSLHTGFIASLFYTHSFNSSGCPERMSACRSIEAFRVGWGALQYEDNVTNPEDMRPYCWHYPPRQCGVVSAKTVCGPVYCFTPSPVVVGTTDRLGAPTYTWGENETDVFLLNSTRPPLGSWFGCTWMNSSGYTKTCGAPPCRTRADFNASTDLLCPTDCFRKHPDTTYLKCGSGPWLTPRCLIDYPYRLWHYPCTVNYTIFKIRMYVGGVEHRLTAACNFTRGDRCNLEDRDRSQLSPLLHSTTEWAILPCSYSDLPALSTGLLHLHQNIVDVQFMYGLSPALTKYIVRWEWVILLFLLLADARVCACLWMLILLGQAEA |  | 0.00104
